Each block holds one binder with its values, some of them ahead of it.
Columns and labels:
[1] = molecular target: T1, human Fc receptor protein FcRn (human, UniProt P55899 24-297; P61769 21-119, biotinylated); assay: BLI (ForteBio), biotinylated receptor on SA sensor, antibody from 5,000 nM, 1:1 global fit
T1 construct: Biotinylated protein captured on SA sensors
From the text: The dynamic affinity of the antibodies 101A6HZ, 101A6HZm and Hu24 with human Fc receptor proteins CD16a, CD32a, CD32b, CD64 and FcRn was detected through ForteBio (Pall life sciences).

[2] = molecular target: T2, human PTK7 on cells (tumor cells endogenously expressing PTK7); CHO-hPTK7, CHO-S-hPTK7 and 293T-hPTK7 … (human, UniProt Q13308 31-1070); assay: competition flow cytometry on 293T-hPTK7 cells, streptavidin-PE; competitor: biotin-labelled 101A6HZ
T2 construct: whole, on cells; The cell line of each value is named under assay; also called H1299; H358
T2 sequence (looked up): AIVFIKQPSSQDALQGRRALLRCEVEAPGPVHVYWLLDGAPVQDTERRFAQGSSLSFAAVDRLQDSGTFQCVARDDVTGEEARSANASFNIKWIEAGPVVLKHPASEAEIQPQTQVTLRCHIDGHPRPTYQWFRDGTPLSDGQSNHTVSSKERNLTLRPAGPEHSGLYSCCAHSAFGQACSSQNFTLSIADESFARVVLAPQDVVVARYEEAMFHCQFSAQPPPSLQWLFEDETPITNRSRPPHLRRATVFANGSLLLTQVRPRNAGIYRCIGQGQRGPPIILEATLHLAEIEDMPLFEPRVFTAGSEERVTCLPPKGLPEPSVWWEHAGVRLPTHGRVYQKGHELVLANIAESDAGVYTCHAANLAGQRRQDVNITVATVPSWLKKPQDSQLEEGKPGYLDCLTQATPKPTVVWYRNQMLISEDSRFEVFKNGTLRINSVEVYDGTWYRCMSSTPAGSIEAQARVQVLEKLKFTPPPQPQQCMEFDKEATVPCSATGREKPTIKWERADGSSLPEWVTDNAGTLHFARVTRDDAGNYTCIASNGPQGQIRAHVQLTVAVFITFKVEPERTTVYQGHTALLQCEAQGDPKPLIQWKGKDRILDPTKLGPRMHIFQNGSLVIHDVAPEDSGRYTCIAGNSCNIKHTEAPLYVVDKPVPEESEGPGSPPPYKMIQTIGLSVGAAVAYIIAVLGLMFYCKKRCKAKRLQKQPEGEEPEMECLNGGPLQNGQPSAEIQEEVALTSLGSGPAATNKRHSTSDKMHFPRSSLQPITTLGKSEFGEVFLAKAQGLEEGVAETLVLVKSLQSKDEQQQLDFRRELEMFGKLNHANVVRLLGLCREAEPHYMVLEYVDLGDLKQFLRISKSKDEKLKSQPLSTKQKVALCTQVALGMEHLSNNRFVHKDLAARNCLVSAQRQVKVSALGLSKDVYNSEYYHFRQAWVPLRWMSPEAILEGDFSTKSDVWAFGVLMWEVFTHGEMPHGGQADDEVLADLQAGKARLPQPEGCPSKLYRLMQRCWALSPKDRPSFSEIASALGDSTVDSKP

[3] = molecular target: T2, human PTK7 on cells (tumor cells …); assay: competition flow cytometry on 293T-hPTK7 cells, streptavidin-PE; competitor: biotin-labelled 64A10HZ
[4] = molecular target: T2, human PTK7 on cells (tumor cells …); assay: cell-based or functional assay
[5] = molecular target: T3, monkey PTK7 protein (extracellular sequence of monkey PTK7 with C-terminal 6×His tag) (monkey); assay: ELISA, coated monkey PTK7 protein 1 µg/ml
T3 chain: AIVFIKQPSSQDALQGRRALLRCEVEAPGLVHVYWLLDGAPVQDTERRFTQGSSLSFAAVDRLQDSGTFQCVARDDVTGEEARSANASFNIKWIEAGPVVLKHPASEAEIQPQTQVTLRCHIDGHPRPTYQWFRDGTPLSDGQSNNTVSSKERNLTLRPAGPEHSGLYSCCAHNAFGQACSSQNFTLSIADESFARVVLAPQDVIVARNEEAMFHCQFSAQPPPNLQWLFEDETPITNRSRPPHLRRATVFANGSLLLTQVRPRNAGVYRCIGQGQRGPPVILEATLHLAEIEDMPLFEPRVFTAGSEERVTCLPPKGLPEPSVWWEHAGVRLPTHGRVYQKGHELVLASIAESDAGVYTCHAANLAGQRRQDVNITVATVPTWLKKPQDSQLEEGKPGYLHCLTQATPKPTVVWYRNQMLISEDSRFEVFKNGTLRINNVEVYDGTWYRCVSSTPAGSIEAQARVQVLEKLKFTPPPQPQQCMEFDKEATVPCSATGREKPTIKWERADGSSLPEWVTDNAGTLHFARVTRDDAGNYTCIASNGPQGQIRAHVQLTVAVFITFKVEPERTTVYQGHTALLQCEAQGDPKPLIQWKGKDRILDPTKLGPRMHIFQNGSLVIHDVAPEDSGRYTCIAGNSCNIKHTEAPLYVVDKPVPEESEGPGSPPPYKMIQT
Procedure: Original data was imported into software for nonlinear curve fitting, and EC₅₀ of binding of each antibody to human PTK7 and monkey PTK7 was calculated, respectively. As shown in Table 1 and FIGS. 1A-1B, the screened antibodies could be bound to the human and monkey PTK7 proteins with affinity higher than that of the control antibody Hu24.

[6] = molecular target: T2, human PTK7 on cells (tumor cells …); assay: flow cytometry on H1299 cells endogenously expressing PTK7
[7] = molecular target: T2, human PTK7 on cells (tumor cells …); assay: competition flow cytometry on 293T-hPTK7 cells, streptavidin-PE; competitor: biotin-labelled Hu24

- Kd [1]: 11.8 nM
- IC50 (read off the curve) [2]: ~1 µg/mL
B1: 101A6HZ (anti-human PTK7 humanized antibody) (antibody, human IgG1, kappa)
heavy: not shown
light: DIVMTQSPDSLAVSLGERATINCKASQDVGSAVIWYQQKPGQSPKLLIYWASTRHTGVPDRFSGSGSGTDFTLTISSLQAEDVAVYYCQQYSSYPLTFGQGTKLEIKRTVAAPSVFIFPPSDEQLKSGTASVVCLLNNFYPREAKVQWKVDNALQSGNSQESVTEQDSKDSTYSLSSTLTLSKADYEKHKVYACEVTHQGLSSPVTKSFNRGEC

- IC50 (read off the curve) [3]: ~0.3 µg/mL
B2: 64A10HZ (anti-human PTK7 humanized antibody) (antibody, human IgG1, kappa, V domains shown)
VH: QVQLQESGPGLVKPSETLSLTCTVSGFSLTSYGVYWVRQPPGKGPEWLGVIWTSGNTNYNPSLKSRLTISKDNSKNQVSLKLSSVTAADTAVYYCVKHDGGNYVGVMNYWGQGTLVTVSS
VL: EIVMTQSPDFQSVTPKEKVTITCRASQSISDYLHWYQQKPDQSPKLLIKYASQSISGVPSRFSGSGSGSDFTLTINSLEAEDAATYYCQNGHSFPPTFGQGTKLEIKR
notes: Human IgG1 heavy chain constant region and human Kappa light chain constant region; expressed in CHO-S cells

- Cell endocytosis, EC50, A431 cells [4]: 0.0743 µg/mL
- Cell endocytosis, EC50, HCC1806 cells [4]: 0.0659 µg/mL
- Cell endocytosis, EC50, NCI-H358 cells [4]: 0.0708 µg/mL
- Cell endocytosis, EC50, OVCAR3 cells [4]: 0.101 µg/mL
- EC50 [5]: 0.0133 µg/mL
- EC50 [6]: 0.293 µg/mL
- IC50 (read off the curve) [7]: ~0.3 µg/mL
B3: Hu24 (PTK7 control antibody, taken from Hu24 in the Patent CN201580030255) (antibody)
chain 1: QVQLVQSGPEVKKPGASVKVSCKASGYTFTDYAVHWVRQAPGKRLEWIGVISTYNDYTYNNQDFKGRVTMTRDTSASTAYMELSRLRSEDTAVYYCARGNSYFYALDYWGQGTSVTVSS
chain 2: EIVLTQSPATLSLSPGERATLSCRASESVDSYGKSFMHWYQQKPGQAPRLLIYRASNLESGIPARFSGSGSGTDFTLTISSLEPEDFAVYYCQQSNEDPWTFGGGTKLEIK
